Laboratory results as given in paper PMC12713088, “Arabidopsis TRB Proteins Form Two Closely Related Complexes to Mediate H3K4me3 Demethylation and Transcriptional Repression” (Advanced Science, 2025).

Columns and labels:
[1] = target: T1, ICU11-GST, recombinant (gel filtration) (Arabidopsis thaliana, UniProt Q3ED68 1-397); test: SEC; purified proteins mixed in equivalent molar amounts, 4 °C overnight, Superose 6 10/300GL; fractions detected by immunoblotting (GST, FLAG, MBP, HIS); details: both partners purified
T1 construct: ICU11, Arabidopsis thaliana, AT1G22950; full length in pGEX6P-1; May be the same construct as m20 in some pull-downs; source: E. coli BL21, purified (GST beads)
T1 sequence (looked up): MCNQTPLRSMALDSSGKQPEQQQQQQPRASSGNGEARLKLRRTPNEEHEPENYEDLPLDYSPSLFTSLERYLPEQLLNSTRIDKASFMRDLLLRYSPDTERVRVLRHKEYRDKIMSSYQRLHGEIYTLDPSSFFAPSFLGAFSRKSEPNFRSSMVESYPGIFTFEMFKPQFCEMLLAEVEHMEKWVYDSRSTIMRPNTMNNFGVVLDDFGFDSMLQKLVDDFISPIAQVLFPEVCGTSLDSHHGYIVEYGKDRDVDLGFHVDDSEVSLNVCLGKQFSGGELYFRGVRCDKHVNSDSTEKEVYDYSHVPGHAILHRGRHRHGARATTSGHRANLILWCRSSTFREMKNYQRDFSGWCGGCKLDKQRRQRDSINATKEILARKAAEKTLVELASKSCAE

[2] = target: T2, ICU11, recombinant, GST- or MBP-tagged (pull-down) (Arabidopsis thaliana, UniProt Q3ED68 1-397); test: pull-down; purified proteins mixed in GST-tag lysis buffer (20 mM Tris-HCl pH 7.5, 150 mM NaCl, 1 mM DTT) at 4 °C for 1 h, then GST or MBP beads; immunoblot with GST, MBP or His antibody; details: both partners purified
T2 construct: ICU11, Arabidopsis thaliana, AT1G22950; full length in pGEX6P-1 (GST) or pET-30a (MBP); source: E. coli BL21, purified (GST beads or MBP beads); not shown: GST or MBP (both forms were made)
T2 sequence (looked up): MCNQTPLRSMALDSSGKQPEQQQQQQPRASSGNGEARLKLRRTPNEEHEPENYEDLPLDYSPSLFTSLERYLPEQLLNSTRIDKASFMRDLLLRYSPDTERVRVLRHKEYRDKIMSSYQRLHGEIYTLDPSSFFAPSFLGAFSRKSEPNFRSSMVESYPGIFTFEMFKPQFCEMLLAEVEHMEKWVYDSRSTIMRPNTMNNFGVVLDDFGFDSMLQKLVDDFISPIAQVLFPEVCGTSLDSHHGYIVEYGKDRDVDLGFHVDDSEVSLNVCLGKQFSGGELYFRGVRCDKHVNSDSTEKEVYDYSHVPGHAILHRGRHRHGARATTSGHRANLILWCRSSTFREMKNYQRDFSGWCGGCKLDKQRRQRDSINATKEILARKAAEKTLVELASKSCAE

TRB1;HTH1 [3] = target: T3, TRB1;HTH1 (Arabidopsis thaliana;Arabidopsis …, UniProt Q8VWK4;Q9SHL4 1-300;1-275, |); test: ITC; enhanced vs TRB1 alone; Kd only in figure; EMSA: 10 mM Tris-HCl pH 7.5, 50 mM NaCl, 1 mM EDTA, 5% glycerol, 1 mM DTT, 25 C, 30 min, 20 ng DNA + 1 ug protein; ITC: 20 mM Tris-HCl pH 7.5, 150 mM NaCl, 25 C, 5 uM protein, 100 uM DNA; details: protein: recombinant;recombinant; tags: His;His or MBP (EMSA construct not specified); blunt
T3 sequence 1: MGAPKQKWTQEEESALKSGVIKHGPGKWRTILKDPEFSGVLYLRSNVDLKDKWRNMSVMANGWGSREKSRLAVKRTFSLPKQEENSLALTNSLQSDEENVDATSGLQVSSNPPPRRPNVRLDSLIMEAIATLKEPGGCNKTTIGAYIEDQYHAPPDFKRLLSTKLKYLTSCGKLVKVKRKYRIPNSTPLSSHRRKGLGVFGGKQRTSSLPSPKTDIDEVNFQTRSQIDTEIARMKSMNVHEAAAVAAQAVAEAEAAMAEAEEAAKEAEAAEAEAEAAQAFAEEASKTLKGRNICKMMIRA
T3 sequence 2: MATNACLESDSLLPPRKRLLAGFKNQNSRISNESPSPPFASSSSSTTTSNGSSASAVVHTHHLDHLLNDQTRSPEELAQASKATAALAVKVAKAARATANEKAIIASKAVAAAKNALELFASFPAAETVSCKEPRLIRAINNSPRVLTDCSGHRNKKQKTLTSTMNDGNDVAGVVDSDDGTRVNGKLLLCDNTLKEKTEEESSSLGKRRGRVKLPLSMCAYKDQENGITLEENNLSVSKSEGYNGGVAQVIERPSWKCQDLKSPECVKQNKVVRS

TRB1;NAC050-N [4] = target: T4, TRB1;NAC050-N (Arabidopsis thaliana;Arabidopsis …, UniProt Q8VWK4;Q9SQX9 1-300;1-184, |); test: as above; details: protein: recombinant;recombinant; tags: His;MBP; blunt
T4 sequence 1: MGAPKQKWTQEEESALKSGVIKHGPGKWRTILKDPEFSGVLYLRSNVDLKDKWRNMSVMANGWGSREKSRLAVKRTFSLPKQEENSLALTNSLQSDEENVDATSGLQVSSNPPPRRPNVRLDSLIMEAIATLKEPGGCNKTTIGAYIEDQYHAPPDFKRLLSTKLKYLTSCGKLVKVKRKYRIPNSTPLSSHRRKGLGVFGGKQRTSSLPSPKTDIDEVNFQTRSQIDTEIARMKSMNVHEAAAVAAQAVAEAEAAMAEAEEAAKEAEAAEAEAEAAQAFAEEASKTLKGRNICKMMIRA
T4 sequence 2: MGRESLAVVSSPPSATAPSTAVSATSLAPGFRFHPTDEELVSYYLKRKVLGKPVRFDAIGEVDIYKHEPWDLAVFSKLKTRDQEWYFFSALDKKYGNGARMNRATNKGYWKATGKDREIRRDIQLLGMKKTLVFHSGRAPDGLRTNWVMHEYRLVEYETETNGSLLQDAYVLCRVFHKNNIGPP

TRB1;HTH1 [5] = target: T3, TRB1;HTH1; test: EMSA; larger complex, enhanced vs TRB1 alone; EMSA: 10 mM Tris-HCl pH 7.5, 50 mM NaCl, 1 mM EDTA, 5% glycerol, 1 mM DTT, 25 C, 30 min, 20 ng DNA + 1 ug protein; ITC: 20 mM Tris-HCl pH 7.5, 150 mM NaCl, 25 C, 5 uM protein, 100 uM DNA; details: protein: recombinant;recombinant; tags: His;His or MBP (EMSA construct not specified); label: Cy5 at 5' of strand 1; blunt
TRB1;NAC050-N [6] = target: T4, TRB1;NAC050-N; test: as above; details: protein: recombinant;recombinant; tags: His;MBP; label: Cy5 at 5' of strand 1; blunt
TRB1-1 = target: T5, TRB1-1 (Arabidopsis thaliana, UniProt Q8VWK4 1-185); test: EMSA; EMSA: 10 mM Tris-HCl pH 7.5, 50 mM NaCl, 1 mM EDTA, 5% glycerol, 1 mM DTT, 25 C, 30 min, 20 ng DNA + 1 ug protein; ITC: 20 mM Tris-HCl pH 7.5, 150 mM NaCl, 25 C, 5 uM protein, 100 uM DNA; details: protein: recombinant; tags: His; label: Cy5 at 5' of strand 1; blunt
T5 sequence: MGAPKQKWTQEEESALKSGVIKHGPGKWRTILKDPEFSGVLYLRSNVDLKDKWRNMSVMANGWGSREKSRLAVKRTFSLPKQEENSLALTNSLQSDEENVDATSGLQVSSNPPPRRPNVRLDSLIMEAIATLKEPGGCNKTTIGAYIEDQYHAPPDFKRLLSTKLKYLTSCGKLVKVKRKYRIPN

TRB1 = target: T6, TRB1 (Arabidopsis thaliana, UniProt Q8VWK4 1-300); test: as above; details: protein: recombinant; tags: His; label: Cy5 at 5' of strand 1; blunt
T6 sequence: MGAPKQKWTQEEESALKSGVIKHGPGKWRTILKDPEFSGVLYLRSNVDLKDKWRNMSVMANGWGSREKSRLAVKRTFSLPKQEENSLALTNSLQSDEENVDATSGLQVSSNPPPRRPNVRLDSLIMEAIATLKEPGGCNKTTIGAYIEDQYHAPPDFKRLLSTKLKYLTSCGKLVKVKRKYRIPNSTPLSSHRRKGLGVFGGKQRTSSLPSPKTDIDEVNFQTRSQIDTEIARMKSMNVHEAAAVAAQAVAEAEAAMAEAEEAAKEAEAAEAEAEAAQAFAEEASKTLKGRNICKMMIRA

TRB2 = target: T7, TRB2 (Arabidopsis thaliana, UniProt Q9FJW5 1-299); test: as above; details: protein: recombinant; tags: His; label: Cy5 at 5' of strand 1; blunt
T7 sequence: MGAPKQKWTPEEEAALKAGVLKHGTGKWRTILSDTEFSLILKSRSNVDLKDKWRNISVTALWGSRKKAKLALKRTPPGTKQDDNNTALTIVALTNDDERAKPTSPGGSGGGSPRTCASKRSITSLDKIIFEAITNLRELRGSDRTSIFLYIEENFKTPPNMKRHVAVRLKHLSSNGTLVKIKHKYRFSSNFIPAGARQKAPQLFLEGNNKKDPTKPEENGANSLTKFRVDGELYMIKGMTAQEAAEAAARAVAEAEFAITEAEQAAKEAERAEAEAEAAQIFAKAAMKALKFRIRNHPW

TRB3 = target: T8, TRB3 (Arabidopsis thaliana, UniProt Q9M2X3 1-295); test: as above; details: protein: recombinant; tags: His; label: Cy5 at 5' of strand 1; blunt
T8 sequence: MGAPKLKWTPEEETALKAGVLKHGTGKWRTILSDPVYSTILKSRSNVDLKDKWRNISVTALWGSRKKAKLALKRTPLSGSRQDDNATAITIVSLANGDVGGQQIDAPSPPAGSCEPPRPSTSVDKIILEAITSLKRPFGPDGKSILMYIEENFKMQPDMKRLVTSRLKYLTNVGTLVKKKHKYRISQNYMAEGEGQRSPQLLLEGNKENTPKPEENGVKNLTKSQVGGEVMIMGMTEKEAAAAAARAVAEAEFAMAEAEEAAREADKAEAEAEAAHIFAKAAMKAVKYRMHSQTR

TRB1-GH1Δ = target: T9, TRB1-GH1Δ (Arabidopsis thaliana, UniProt Q8VWK4 1-300, del114-185); test: as above; details: protein: recombinant; label: Cy5 at 5' of strand 1; blunt
T9 sequence: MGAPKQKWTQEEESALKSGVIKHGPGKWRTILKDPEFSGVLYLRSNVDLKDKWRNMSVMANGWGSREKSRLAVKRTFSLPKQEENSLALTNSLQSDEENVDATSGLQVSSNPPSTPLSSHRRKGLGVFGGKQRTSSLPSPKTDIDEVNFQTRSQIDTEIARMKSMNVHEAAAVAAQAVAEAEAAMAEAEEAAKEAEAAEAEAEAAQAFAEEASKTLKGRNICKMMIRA

TRB1-MybΔ-GH1Δ = target: T10, TRB1-MybΔ-GH1Δ (Arabidopsis thaliana, UniProt Q8VWK4 61-300, del1-60;del114-185); test: as above; details: protein: recombinant; label: Cy5 at 5' of strand 1; blunt
T10 sequence: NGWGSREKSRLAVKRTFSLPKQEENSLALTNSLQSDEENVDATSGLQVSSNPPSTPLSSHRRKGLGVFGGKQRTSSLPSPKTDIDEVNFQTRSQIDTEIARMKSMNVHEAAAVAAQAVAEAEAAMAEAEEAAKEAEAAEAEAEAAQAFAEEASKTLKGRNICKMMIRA

B1: TRB1-His, recombinant (natural protein, Arabidopsis thaliana, UniProt Q8VWK4 1-300, looked up)
chain: MGAPKQKWTQEEESALKSGVIKHGPGKWRTILKDPEFSGVLYLRSNVDLKDKWRNMSVMANGWGSREKSRLAVKRTFSLPKQEENSLALTNSLQSDEENVDATSGLQVSSNPPPRRPNVRLDSLIMEAIATLKEPGGCNKTTIGAYIEDQYHAPPDFKRLLSTKLKYLTSCGKLVKVKRKYRIPNSTPLSSHRRKGLGVFGGKQRTSSLPSPKTDIDEVNFQTRSQIDTEIARMKSMNVHEAAAVAAQAVAEAEAAMAEAEEAAKEAEAAEAEAEAAQAFAEEASKTLKGRNICKMMIRA
notes: TRB1, Arabidopsis thaliana, AT1G49950; full length in the vector pSMT3; pSMT3 is recalled to add an N-terminal His-SUMO; source: E. coli BL21, purified (His beads)
- binding result [1]: binds
- binding result [2]: binds

B2: Probe 1 for ITC (dsDNA)
DNA 1: ATCGAATTTAGGGCAAAATG
DNA 2: CATTTTGCCCTAAATTCGAT
- binding result (TRB1;HTH1 [3]): binds
- binding result (TRB1;NAC050-N [4]): binds

B3: Probe 1 (P1) (dsDNA)
DNA 1: ATCGAATTTAGGGCAAAATG
DNA 2: CATTTTGCCCTAAATTCGAT
- binding result (TRB1;HTH1 [5]): binds
- binding result (TRB1;NAC050-N [6]): binds
- binding result (TRB1-1): binds
- binding result (TRB1): binds
- binding result (TRB2): binds
- binding result (TRB3): binds
- binding result (TRB1-GH1Δ): binds
- binding result (TRB1-MybΔ-GH1Δ): no binding
